Measured values taken from PMC3983370.

Target: HCoV-OC43 nucleocapsid (N) protein WT (Human coronavirus OC43, UniProt P33469 1-448)
Test: SPR

Sequence of HCoV-OC43 nucleocapsid (N) protein WT (P33469 whole entry): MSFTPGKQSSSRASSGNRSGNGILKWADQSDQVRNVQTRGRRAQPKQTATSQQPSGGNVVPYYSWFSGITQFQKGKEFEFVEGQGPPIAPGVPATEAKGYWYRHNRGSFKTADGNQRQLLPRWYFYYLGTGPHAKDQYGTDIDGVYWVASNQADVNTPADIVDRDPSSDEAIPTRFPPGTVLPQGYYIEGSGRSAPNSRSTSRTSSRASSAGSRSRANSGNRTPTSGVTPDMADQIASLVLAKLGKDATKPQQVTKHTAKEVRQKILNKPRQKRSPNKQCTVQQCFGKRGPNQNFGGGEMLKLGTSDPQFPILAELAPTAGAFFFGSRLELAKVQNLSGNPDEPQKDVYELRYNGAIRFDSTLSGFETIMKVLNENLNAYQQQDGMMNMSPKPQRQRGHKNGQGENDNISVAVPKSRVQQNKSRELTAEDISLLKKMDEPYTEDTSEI

UCUAAACUCUAAACUCUAAACUCUAAAC (ssRNA) [(UCUAAAC)4 repeated intergenic sequence]
Kd: 11.7 ± 0.8 nM
